The target of experiment [1] is T1, Human BAFF (residues 82-285) (human, UniProt Q9Y275 82-285).
T1 construct: also called BAFF82-285
Kind of experiment: SPR (BIAcore 3000), BAFF immobilized, 1:1 model.
Method: CM5 chips from BIAcore were docked according to manufacturer instructions. Then, BIAcore system was primed with 0.2 μm filtered buffer containing 10 mM Hepes pH 7.2, 150mM NaCl, 0.005% Tween20. After buffer priming, the flow cells were normalized with 70% glycerol. Each flow cell surface was activated individually in preparation for linkage of the ligand to the chip with a 1:1 mixture of EDC(N-ethyl-N′-(3-dimethyl aminopropyl)-carbodiimide hydrochloride) and NHS (N-hydroxysuccinimide). […] Generally, the ligand to be immobilized (30 μg/ml in 10 mM NaOAc, pH 5 buffer) was injected into the system at 40 μl/min. Once approximately 400 RU was generated, the flow cell was blocked with ethanolamine. […] The system was then primed again.
The ligand-receptor complex was allowed to dissociate by washing the flow cell at 30 μl/min for 600 seconds. Alternatively, if several binding measurements over the same flow cell were to be performed, the ligand-receptor complex was allowed to dissociate by washing the flow cell at 30 μl/min for 900 seconds. Sensorgrams were recorded for each binding assay. A 1:1 Langmuir binding equation was used to simultaneously fit the association and dissociation rates of the ligand-analyte interactions. kₐ, kd, KD were calculated using curve fit analysis software provided with the BiaCore instrument

The target of experiment [2] is T1, Human BAFF (residues 82-285). The experiment is described as follows: competitive displacement ELISA on immobilized BAFF; unbiotinylated BCMA-Fc varied, tracer biotinylated miniBR3. (In general: ELISA stands for enzyme-linked immunosorbent assay.)
Method: The plate washed with PBS and blocked for 1 hr with 200 μl of 0.2% BSA in PBS at room temperature. […] The plate washed with PBS/Tween-20 and incubated with 100 μl/well of 0.1 U/ml Streptavidin-POD (Boehringer Mannheim) for 15 minutes at room temperature. After washing the plate with PBS/0.05% Tween-20 followed by a final wash in PBS, the plate was incubated for 5 min with 100 μl/well PBS substrate solution containing 0.8 mg/ml OPD (Sigma) and 0.01% H₂O₂.
Experiment [3] has the same target. The experiment is described as follows: competitive displacement ELISA; immobilized BAFF, tracer biotinylated mini-BR3; bivalent Fc construct (avidity); competition ELISA.
Experiment [4] shares this target. Kind of experiment: SPR (BIAcore 3000), BAFF immobilized.

The record followed here is patent publication US20070249530A1 (Genentech, published 2007).

T1 sequence (Q9Y275 82-285): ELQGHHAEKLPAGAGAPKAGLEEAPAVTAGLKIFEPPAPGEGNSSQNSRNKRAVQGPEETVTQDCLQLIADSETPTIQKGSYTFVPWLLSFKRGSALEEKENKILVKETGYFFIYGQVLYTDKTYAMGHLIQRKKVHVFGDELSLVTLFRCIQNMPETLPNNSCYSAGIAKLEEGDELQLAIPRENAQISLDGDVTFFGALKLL

In experiment [1], AGQCSQNEYFDSLLHACIPCQLRCSSNTPPLTCQRYCNASVTNSVKG (Fc fusion, not shown: a dimerising Fc or GST, also called BCMA(wt)-Fc; BCMA-Fc wt) [BCMA-Fc] registered a Kd of 4.9 nM, a koff of 0.0034 s⁻¹ and a kon of 680000 M⁻¹ s⁻¹. The “IC50 (read off the curve)” value in experiment [2] is roughly 9 nM. The same molecule yielded an IC50 in experiment [3] of 13 nM.

B1: BCMA ECD purified from baculovirus expression (receptor, not shown: small tags and cut ends)
chain: MAGQCSQNEYFDSLLHACIPCQLRCSSNTPPLTCQRYCNASVTNSVKGTN
notes: also called BCMA(baculovirus); baculovirus BCMA
As to B1, the binding result in experiment [4] was “no binding (tested: analyte 6.25 nM to 200 nM)”.

Usually Kd stands for the constant that tells how readily two partners part at equilibrium. A low value points to a tighter complex. What is called koff is the first-order rate constant of dissociation. In general, kon refers to the second-order rate constant of association. Read a low kon as slow association. Usually IC50 stands for the concentration that inhibits the measured activity by half. A lower IC50 goes with greater potency in that assay.
